Source: patent US20140199242A1

Target: MUC4 protein (endogenous human MUC4 of pancreatic cancer cells and tumor tissue) (human) (UniProt Q99102)
Assay: flow cytometry, cell-surface staining of paraformaldehyde-fixed unpermeabilized cells (cell line not given), 1 µg antibody/10^6 cells, FITC anti-mouse secondary

MFI (mean fluorescence intensity) | Substance
14.2 | anti-KLH antibody K2G6
23.1 | anti-MUC4 TR MAb 8G7 (antibody)
